Experimental data reported in PMC7450122.

target: GST-p65, purified recombinant (UniProt Q04206); experiment: alanine-scanning peptide array probed with GST-p65, anti-GST immunoblot
UniProt Q04206, sequence (Q04206 whole entry, looked up): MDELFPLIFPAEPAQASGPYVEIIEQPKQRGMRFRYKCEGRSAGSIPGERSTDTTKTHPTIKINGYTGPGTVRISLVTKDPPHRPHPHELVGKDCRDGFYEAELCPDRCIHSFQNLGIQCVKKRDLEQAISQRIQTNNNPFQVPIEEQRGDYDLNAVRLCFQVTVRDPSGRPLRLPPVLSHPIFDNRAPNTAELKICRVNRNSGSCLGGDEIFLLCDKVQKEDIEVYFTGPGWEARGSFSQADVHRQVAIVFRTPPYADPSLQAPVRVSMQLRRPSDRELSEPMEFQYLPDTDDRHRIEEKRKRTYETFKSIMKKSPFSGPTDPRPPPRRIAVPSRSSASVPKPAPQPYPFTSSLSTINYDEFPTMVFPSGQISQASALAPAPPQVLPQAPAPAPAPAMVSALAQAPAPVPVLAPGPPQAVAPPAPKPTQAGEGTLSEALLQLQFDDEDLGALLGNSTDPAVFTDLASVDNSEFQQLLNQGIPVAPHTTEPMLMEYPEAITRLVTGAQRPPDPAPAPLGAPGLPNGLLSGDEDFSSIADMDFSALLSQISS

Percent of parent (% of parent peptide), < 60:
USP7 peptide A23 (629-646, …) K633A
USP7 peptide A23 (629-646, …) R634A
USP7 peptide C13 (829-846, …) D833A
USP7 peptide C13 (829-846, …) F839A
USP7 peptide C13 (829-846, …) M835A
USP7 peptide C13 (829-846, …) Y845A
USP7 peptide C20 (857-874, …) Q872A
USP7 peptide C25 (877-894, …) D887A
USP7 peptide C25 (877-894, …) F888A
USP7 peptide C25 (877-894, …) F894A
USP7 peptide C30 (897-914, …) E905A
USP7 peptide C30 (897-914, …) F903A
USP7 peptide C30 (897-914, …) K914A
USP7 peptide C30 (897-914, …) L899A
